# Reference: publication PMC3406928 (Hypertension, 2012)
# T1: angiotensin type 2 receptor (human (endogenous in RPTCs), UniProt P50052 1-363)
# T1 sequence (looked up): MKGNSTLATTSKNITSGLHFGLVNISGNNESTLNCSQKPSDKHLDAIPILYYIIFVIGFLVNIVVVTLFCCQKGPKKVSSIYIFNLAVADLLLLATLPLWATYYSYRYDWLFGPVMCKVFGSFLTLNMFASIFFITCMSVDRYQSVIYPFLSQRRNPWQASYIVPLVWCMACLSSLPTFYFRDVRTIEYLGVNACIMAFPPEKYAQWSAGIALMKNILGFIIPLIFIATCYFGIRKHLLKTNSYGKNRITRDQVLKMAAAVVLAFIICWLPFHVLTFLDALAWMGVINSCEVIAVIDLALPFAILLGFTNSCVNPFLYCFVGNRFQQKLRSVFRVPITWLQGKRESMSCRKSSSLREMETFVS
# B1: dopamine D1 receptor (receptor, human (endogenous in nRPTCs), UniProt P21728 1-446, looked up)
# chain: MRTLNTSAMDGTGLVVERDFSVRILTACFLSLLILSTLLGNTLVCAAVIRFRHLRSKVTNFFVISLAVSDLLVAVLVMPWKAVAEIAGFWPFGSFCNIWVAFDIMCSTASILNLCVISVDRYWAISSPFRYERKMTPKAAFILISVAWTLSVLISFIPVQLSWHKAKPTSPSDGNATSLAETIDNCDSSLSRTYAISSSVISFYIPVAIMIVTYTRIYRIAQKQIRRIAALERAAVHAKNCQTTTGNGKPVECSQPESSFKMSFKRETKVLKTLSVIMGVFVCCWLPFFILNCILPFCGSGETQPFCIDSNTFDVFVWFGWANSSLNPIIYAFNADFRKAFSTLLGCYRLCPATNNAIETVSINNNGAAMFSSHHEPRGSISKECNLVYLIPHAVGSSEDLKKEEAAGIARPLEKLSPALSVILDYDTDVSLEKIQPITQNGQHPT
# Target: T1, angiotensin type 2 receptor
# Test: FRET or BRET
binder,measurement,value
B1,fold increase of corrected FRET after FEN stimulation vs. control,1.96 fold
